Columns and labels:
[1] = target: T1, MMP-2 (Mus musculus, UniProt P33434); assay: In vitro protein binding assay (CLU-His pull-down, gelatin zymography), MMP-2; settings: 150 mM NaCl binding buffer
T1 construct: purchased R&D Systems
Protocol: A mixture of MMP-2, MMP-9, and C-terminal truncated MMP-9 (9-ΔC) was incubated with His-tagged CLU, used in a pull-down assay and resolved on a gelatin zymography gel. The input and bound samples were loaded in a series of dilution.
Next, we tested the interaction of secreted CLU using mouse recombinant proteins. We used purified recombinant proteins of MMP-2, MMP-9, and CLU that were secreted from a mouse myeloma cell line (NSO). All of the proteins were purchased from R&D Systems. A mixture of MMP-2, MMP-9, and C-terminal truncated MMP-9 (9-ΔC) was incubated with His-tagged CLU, and subjected to the pull-down assay, using 150 mM NaCl-containing binding buffer and anti-His tag antibody resins. Portions of the input samples (Input) and proteins bound to the antibody (Bound) were resolved on the gelatin zymography gel.
The recombinant CLU contains a (His)6-Tag at the C-terminus of the protein, which was used for pull-down experiments with anti-His tag antibody beads. It was previously reported that CLU also binds to MT6-MMP/mmp-25 and that the hemopexin domain in the MMP C-terminal region is required for their interaction (Matsuda et al., 2003). To use as an internal control for the binding experiment, we removed part of MMP-9 (MMP-9-ΔC) by promoting self-processing by APMA (4-aminophenylmercuric acetate) treatment. […]

[2] = target: T2, catalytic domain of human MMP-9 (residue 112-445) (Homo sapiens, UniProt P14780); assay: MMP inhibition assay (FRET peptide substrate), recombinant MMP-9 catalytic domain; type: biochemical; settings: CLU 50 μg/ml (0.63 μM), RT 0.3 h
T2 construct: The recombinant catalytic domain of human MMP-9 (residue 112-445) was purchased from ProtEra; purchased ProtEra
T2 sequence (P14780 112-445): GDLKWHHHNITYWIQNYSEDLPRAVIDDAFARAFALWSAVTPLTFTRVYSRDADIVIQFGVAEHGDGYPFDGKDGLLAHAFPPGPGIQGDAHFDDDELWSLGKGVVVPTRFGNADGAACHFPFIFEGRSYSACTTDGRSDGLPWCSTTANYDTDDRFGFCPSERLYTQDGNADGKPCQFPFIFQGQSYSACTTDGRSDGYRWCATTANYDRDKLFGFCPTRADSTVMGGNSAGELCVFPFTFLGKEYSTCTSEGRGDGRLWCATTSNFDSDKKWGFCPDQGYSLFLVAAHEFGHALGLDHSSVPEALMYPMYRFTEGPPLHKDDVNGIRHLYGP
Protocol: Recombinant MMP-9 catalytic domain (A) or APMA-activated MMP-7 (B) was incubated with PBS, CLU (50 μg/ml or 0.63 μM), SB3-CT (2 μM), or BSA (50 μg/ml), and MMP FRET substrate at RT for 0.3 h. RFU in PBS samples was considered 100%. Each reaction was performed in triplicate. Standard errors were depicted as a bar in each graph. MMPs were mixed with CLD in TSCB buffer, 50 mM Tris-HCI, pH, 7.5, 150 mM NaCl, 5 mM CaCl2, 0.002% Brij35 (or otherwise indicated concentration) 30 min prior to substrate addition, and incubated for 3 h at RT in the presence or absence of 0.02 mM p-aminophenylmercuric acetate (APMA). MMP activity was measured using a 5-FAM/QXL520 fluorescence resonance energy transfer (FRET) peptide as a substrate (EXlEm=490 nm/520 nm) (AnaSpec, Fremont, Calif.), according to the manufacturer's protocol. Relative fluorescence unit (RFU) was obtained by subtracting the values of APMA- or enzyme-omitted reactions from those of test samples, and then considering the fluorescence unit of a PBS (vehicle) sample as 100%. Enzyme reactions were performed in black 96-well plate, containing combinations of 10 ng, 5 ng, 5 ng, 10 ng, 2.5 μg, 2.5 μg of MMP-2, MMP-7, catalytic domain of MMP-9, MMP-9, CCLU, and/or BSA, respectively, in 50 μl reaction volume. As MMP substrates (0.4 μM), 520 MMP FRET substrate […] […] Fluorescence was monitored using a Victor^3TM V multilabel counter (PerkinElmer). […]

T1 sequence (P33434 110-662): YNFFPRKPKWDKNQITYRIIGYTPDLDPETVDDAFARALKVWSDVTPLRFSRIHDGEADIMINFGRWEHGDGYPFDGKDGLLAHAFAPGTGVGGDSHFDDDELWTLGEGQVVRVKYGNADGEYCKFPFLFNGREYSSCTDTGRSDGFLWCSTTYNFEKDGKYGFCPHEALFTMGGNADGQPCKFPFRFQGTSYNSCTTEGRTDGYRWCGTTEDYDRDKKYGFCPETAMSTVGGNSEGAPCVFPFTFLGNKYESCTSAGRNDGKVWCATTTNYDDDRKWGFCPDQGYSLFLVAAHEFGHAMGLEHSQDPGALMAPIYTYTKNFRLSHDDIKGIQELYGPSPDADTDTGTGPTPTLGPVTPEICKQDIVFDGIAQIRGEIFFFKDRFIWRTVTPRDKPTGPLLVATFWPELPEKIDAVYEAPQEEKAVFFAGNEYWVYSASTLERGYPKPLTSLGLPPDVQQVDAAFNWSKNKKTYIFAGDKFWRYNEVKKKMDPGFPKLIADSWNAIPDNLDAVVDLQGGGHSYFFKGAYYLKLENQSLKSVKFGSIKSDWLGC

B1: CLU: secreted disulfide-linked heterodimeric glycoprotein (70-80 KD); assays used recombinant mouse CLU with C-terminal (His)6 (protein, UniProt Q06890 22-448, looked up)
Clusterin: EQEVSDNELQELSTQGSRYINKEIQNAVQGVKHIKTLIEKTNAERKSLLNSLEEAKKKKEDALEDTRDSEMKLKAFPEVCNETMMALWEECKPCLKHTCMKFYARVCRSGSGLVGQQLEEFLNQSSPFYFWMNGDRIDSLLESDRQQSQVLDAMQDSFARASGIIDTLFQDRFFARELHDPHYFSPIGFPHKRPHFLYPKSRLVRSLMSPSHYGPPSFHNMFQPFFEMIHQAQQAMDVQLHSPAFQFPDVDFLREGEDDRTVCKEIRRNSTGCLKMKGQCEKCQEILSVDCSTNNPAQANLRQELNDSLQVAERLTEQYKELLQSFQSKMLNTSSLLEQLNDQFNWVSQLANLTQGEDKYYLRVSTVTTHSSDSEVPSRVTEVVVKLFDSDPITVVLPEEVSKDNPKFMDTVAEKALQEYRRKSRAE
modifications: C-terminal His6 tag
binding of MMP-2 to His-tagged CLU [1]: Though weaker than MMP-9, MMP-2 also had an affinity for CLU | inhibition of MMP-9 catalytic domain activity [2]: 59%

Source: patent publication US10398755B2, “Clusterin pharmaceuticals and treatment methods using the same” (UNIVERSITY OF SOUTHERN CALIFORNIA, priority 2009, dated 2019)
